Test results taken from patent US20230279118A1 (published 2023).
Numbering of substitutions follows the chain as printed. Names may count otherwise. “And” between values parts separate entries of the source, which are not always exact repeats. Identical values can stand only once. Each block holds one binder with its values, some of them ahead of it.

Tests used:
[1] = biological target: T1, canine FcRn (canine); test: SPR, pH 5.5, FcRn 200 nM over captured Fc
T1 construct: Injected in solution as SPR analyte

[2] = biological target: T1, canine FcRn; test: SPR, pH 5.5, FcRn 400 nM over captured Fc
[3] = biological target: T1, canine FcRn; test: SPR, pH 5.5, FcRn 200 nM over captured Fc; remark: listed apart in the source
[4] = biological target: T1, canine FcRn; test: SPR, pH 5.5, FcRn 200 nM over captured Fc; remark: listed apart in the source
[5] = biological target: T1, canine FcRn; test: SPR, pH 5.5, FcRn 200 nM over captured Fc; remark: listed apart in the source
[6] = biological target: T1, canine FcRn; test: SPR, pH 5.5, FcRn 200 nM over captured Fc; remark: listed apart in the source
[7] = biological target: T1, canine FcRn; test: SPR, pH 5.5, FcRn 200 nM over captured Fc; remark: listed apart in the source
[8] = biological target: T1, canine FcRn; test: SPR, pH 5.5, FcRn 100-800 nM over captured Fc
[9] = biological target: T1, canine FcRn; test: SPR, pH 5.5, FcRn 200 nM over captured Fc; remark: listed apart in the source
[10] = biological target: T1, canine FcRn; test: SPR, pH 5.5, FcRn 200 nM over captured Fc; remark: listed apart in the source
[11] = biological target: T1, canine FcRn; test: SPR, pH 5.5, FcRn 400 nM over captured Fc; average of the wild type replicates

Kd [3]: 869 nM and 774 nM | koff [3]: 0.168 s⁻¹ and 0.169 s⁻¹ | kon [3]: 193000 M⁻¹ s⁻¹ and 218000 M⁻¹ s⁻¹
B2: canine IgG.B Fc variant L252M with SASA tag (Fc fusion)
chain: APEMLGGPSVFIFPPKPKDTLMIARTPEVTCVVVDLDPEDPEVQISWFVDGKQMQTAKTQPREEQFNGTYRVVSVLPIGHQDWLKGKQFTCKVNNKALPSPIERTISKARGQAHQPSVYVLPPSREELSKNTVSLTCLIKDFFPPDIDVEWQSNGQQEPESKYRTTPPQLDEDGSYFLYSKLSVDKSRWQRGDTFICAVMHEALHNHYTQESLSHSPGK

Kd [4]: 372 nM and 439 nM | koff [4]: 0.566 s⁻¹ and 0.696 s⁻¹ | kon [4]: 1.52e+06 M⁻¹ s⁻¹ and 1.59e+06 M⁻¹ s⁻¹
B4: canine IgG.B Fc variant Q311V with SASA tag (Fc fusion)
chain: B2 chain with M22L, Q81V

Kd [2]: 447 nM and 298 nM
B6: canine IgG.B Fc variant T256A with SASA tag (Fc fusion)
chain: B2 chain with M22L, T26A

Kd [2]: 723 nM and 1670 nM | kon [2]: 234000 M⁻¹ s⁻¹ and 318000 M⁻¹ s⁻¹
B7: canine IgG.B Fc variant M428A with SASA tag (Fc fusion)
chain: B2 chain with M22L, M200A

Kd [7]: 107 nM and 159 nM | koff [7]: 0.0524 s⁻¹ and 0.0633 s⁻¹ | kon [7]: 488000 M⁻¹ s⁻¹ and 399000 M⁻¹ s⁻¹ | Kd [8]: 182 nM | koff [8]: 0.0801 s⁻¹ | kon [8]: 440000 M⁻¹ s⁻¹
B16: canine IgG.B Fc variant N434R with SASA tag (Fc fusion)
chain: B2 chain with M22L, N206R

Kd [8]: 247 nM | koff [8]: 0.102 s⁻¹ | kon [8]: 411000 M⁻¹ s⁻¹
B18: canine IgG.B Fc variant N434H with SASA tag (Fc fusion)
chain: B2 chain with M22L, N206H

Kd [2]: 422 nM and 548 nM
B19: canine IgG.B Fc variant K315A with SASA tag (Fc fusion)
chain: B2 chain with M22L, K85A

Kd [10]: 635 nM and 434 nM and 637 nM and 718 nM | koff [10]: 0.239 s⁻¹ and 0.242 s⁻¹ and 0.132 s⁻¹ and 0.145 s⁻¹ | kon [10]: 377000 M⁻¹ s⁻¹ and 558000 M⁻¹ s⁻¹ and 207000 M⁻¹ s⁻¹ and 202000 M⁻¹ s⁻¹
B21: canine IgG.B Fc variant G309P with SASA tag (Fc fusion)
chain: B2 chain with M22L, G79P

Kd [8]: 184 nM | koff [8]: 0.046 s⁻¹ | kon [8]: 250000 M⁻¹ s⁻¹
B22: canine IgG.B Fc YTE variant (L252Y/A254T/T256E) with SASA tag (Fc fusion)
chain: B2 chain with M22Y, A24T, T26E

Kd [7]: 573 nM and 629 nM | koff [7]: 0.156 s⁻¹ and 0.164 s⁻¹ | kon [7]: 272000 M⁻¹ s⁻¹ and 261000 M⁻¹ s⁻¹ | Kd [2]: 457 nM and 494 nM | koff [2]: 0.237 s⁻¹ and 0.477 s⁻¹ | kon [2]: 518000 M⁻¹ s⁻¹ and 966000 M⁻¹ s⁻¹
B23: canine IgG.B Fc variant N434A with SASA tag (Fc fusion)
chain: B2 chain with M22L, N206A

Kd [2]: 292 nM and 240 nM
B24: canine IgG.B Fc variant L252A with SASA tag (Fc fusion)
chain: B2 chain with M22A

Kd [8]: 173 nM | koff [8]: 0.0476 s⁻¹ | kon [8]: 275000 M⁻¹ s⁻¹ | Kd [3]: 98.7 nM and 114 nM | koff [3]: 0.0397 s⁻¹ and 0.041 s⁻¹ | kon [3]: 402000 M⁻¹ s⁻¹ and 358000 M⁻¹ s⁻¹
B25: canine IgG.B Fc variant L252Y with SASA tag (Fc fusion)
chain: B2 chain with M22Y

Kd [9]: 2480 nM and 1660 nM | koff [9]: 0.284 s⁻¹ and 0.287 s⁻¹ | kon [9]: 114000 M⁻¹ s⁻¹ and 172000 M⁻¹ s⁻¹
B26: canine IgG.B Fc variant T250E with SASA tag (Fc fusion)
chain: B2 chain with T20E, M22L

Kd [2]: 266 nM and 359 nM | koff [2]: 0.229 s⁻¹ and 0.0997 s⁻¹
B27: canine IgG.B Fc variant H433A with SASA tag (Fc fusion)
chain: B2 chain with M22L, H205A

Kd [10]: 884 nM and 862 nM | koff [10]: 0.21 s⁻¹ and 0.218 s⁻¹ | kon [10]: 237000 M⁻¹ s⁻¹ and 253000 M⁻¹ s⁻¹ | Kd [7]: 955 nM and 1310 nM | koff [7]: 0.181 s⁻¹ and 0.209 s⁻¹ | kon [7]: 190000 M⁻¹ s⁻¹ and 159000 M⁻¹ s⁻¹ | Kd [1]: 1560 nM and 754 nM | koff [1]: 0.179 s⁻¹ and 0.182 s⁻¹ | kon [1]: 115000 M⁻¹ s⁻¹ and 242000 M⁻¹ s⁻¹ | Kd [9]: 8990 nM and 3110 nM | koff [9]: 0.347 s⁻¹ and 0.354 s⁻¹ | kon [9]: 38700 M⁻¹ s⁻¹ and 114000 M⁻¹ s⁻¹ | Kd [4]: 639 nM and 692 nM | koff [4]: 0.17 s⁻¹ and 0.171 s⁻¹ | kon [4]: 267000 M⁻¹ s⁻¹ and 247000 M⁻¹ s⁻¹ | Kd [11]: 566 nM | Kd [8]: 3150 nM | koff [8]: 0.527 s⁻¹ | kon [8]: 168000 M⁻¹ s⁻¹ | Kd [5]: 502 nM and 784 nM | koff [5]: 0.169 s⁻¹ and 0.207 s⁻¹ | kon [5]: 336000 M⁻¹ s⁻¹ and 264000 M⁻¹ s⁻¹ | Kd [6]: 2050 nM and 2990 nM | koff [6]: 0.31 s⁻¹ and 0.315 s⁻¹ | kon [6]: 151000 M⁻¹ s⁻¹ and 105000 M⁻¹ s⁻¹ | Kd [3]: 1710 nM and 2660 nM | koff [3]: 0.288 s⁻¹ and 0.326 s⁻¹ | kon [3]: 168000 M⁻¹ s⁻¹ and 123000 M⁻¹ s⁻¹
B28: wild-type canine IgG.B Fc (CH2 and CH3 domains) with upstream SASA tag (Fc fusion)
chain: B2 chain with M22L

Kd [2]: 464 nM and 569 nM | koff [2]: 0.196 s⁻¹ and 0.304 s⁻¹ | kon [2]: 422000 M⁻¹ s⁻¹ and 533000 M⁻¹ s⁻¹
B29: canine IgG.B Fc variant T286A with SASA tag (Fc fusion)
chain: B2 chain with M22L, T56A

Kd [7]: 924 nM and 1050 nM | koff [7]: 0.207 s⁻¹ and 0.209 s⁻¹ | kon [7]: 225000 M⁻¹ s⁻¹ and 199000 M⁻¹ s⁻¹
B31: canine IgG.B Fc variant N434S with SASA tag (Fc fusion)
chain: B2 chain with M22L, N206S

More lines, now with the values behind:

B1: canine IgG.B Fc variant E380A with SASA tag (Fc fusion)
chain: B2 chain with M22L, E150A
Kd [1]: 1320 nM and 1570 nM | koff [1]: 0.223 s⁻¹ and 0.239 s⁻¹ | kon [1]: 168000 M⁻¹ s⁻¹ and 152000 M⁻¹ s⁻¹ | Kd [2]: 618 nM and 747 nM | koff [2]: 0.369 s⁻¹ and 0.18 s⁻¹ | kon [2]: 598000 M⁻¹ s⁻¹ and 241000 M⁻¹ s⁻¹

B3: canine IgG.B Fc variant Q285A with SASA tag (Fc fusion)
chain: B2 chain with M22L, Q55A
Kd [2]: 341 nM and 257 nM

B5: canine IgG.B Fc variant D378V with SASA tag (Fc fusion)
chain: B2 chain with M22L, D148V
Kd [5]: 693 nM and 873 nM | koff [5]: 0.159 s⁻¹ and 0.16 s⁻¹ | kon [5]: 229000 M⁻¹ s⁻¹ and 184000 M⁻¹ s⁻¹

B8: canine IgG.B Fc variant A254S with SASA tag (Fc fusion)
chain: B2 chain with M22L, A24S
Kd [2]: 340 nM and 317 nM

B9: canine IgG.B Fc variant A254T with SASA tag (Fc fusion)
chain: B2 chain with M22L, A24T
Kd [6]: 2290 nM and 1340 nM | koff [6]: 0.375 s⁻¹ and 0.433 s⁻¹ | kon [6]: 163000 M⁻¹ s⁻¹ and 323000 M⁻¹ s⁻¹

B10: canine IgG.B Fc variant N434Y with SASA tag (Fc fusion)
chain: B2 chain with M22L, N206Y
Kd [7]: 15.9 nM | koff [7]: 0.00968 s⁻¹ | kon [7]: 607000 M⁻¹ s⁻¹ | Kd [8]: 29.1 nM | koff [8]: 0.0151 s⁻¹ | kon [8]: 520000 M⁻¹ s⁻¹

B11: canine IgG.B Fc variant Y436A with SASA tag (Fc fusion)
chain: B2 chain with M22L, Y208A
Kd [2]: 393 nM and 876 nM | koff [2]: 0.407 s⁻¹ and 0.213 s⁻¹

B12: canine IgG.B Fc variant Q311A with SASA tag (Fc fusion)
chain: B2 chain with M22L, Q81A
Kd [2]: 368 nM and 370 nM | koff [2]: 0.894 s⁻¹ and 0.496 s⁻¹ | kon [2]: 2.43e+06 M⁻¹ s⁻¹ and 1.34e+06 M⁻¹ s⁻¹

B13: canine IgG.B Fc variant P307A with SASA tag (Fc fusion)
chain: B2 chain with M22L, P77A
Kd [2]: 325 nM and 338 nM

B14: canine IgG.B Fc variant T250A with SASA tag (Fc fusion)
chain: B2 chain with T20A, M22L
Kd [2]: 335 nM and 328 nM

B15: canine IgG.B Fc variant N434W with SASA tag (Fc fusion)
chain: B2 chain with M22L, N206W
Kd [7]: 40.4 nM and 75.7 nM | Kd [8]: 101 nM | koff [8]: 0.045 s⁻¹ | kon [8]: 446000 M⁻¹ s⁻¹

B17: canine IgG.B Fc variant G309A with SASA tag (Fc fusion)
chain: B2 chain with M22L, G79A
Kd [2]: 245 nM and 294 nM

B20: canine IgG.B Fc variant T250Q with SASA tag (Fc fusion)
chain: B2 chain with T20Q, M22L
Kd [9]: 2590 nM and 2840 nM | koff [9]: 0.258 s⁻¹ and 0.268 s⁻¹ | kon [9]: 99600 M⁻¹ s⁻¹ and 94300 M⁻¹ s⁻¹

B30: canine IgG.B Fc variant D378A with SASA tag (Fc fusion)
chain: B2 chain with M22L, D148A
Kd [2]: 673 nM and 592 nM | koff [2]: 0.183 s⁻¹ and 0.181 s⁻¹ | kon [2]: 272000 M⁻¹ s⁻¹ and 306000 M⁻¹ s⁻¹

B32: canine IgG.B Fc variant I308A with SASA tag (Fc fusion)
chain: B2 chain with M22L, I78A
Kd [2]: 472 nM and 563 nM | koff [2]: 0.169 s⁻¹ and 0.194 s⁻¹ | kon [2]: 357000 M⁻¹ s⁻¹ and 345000 M⁻¹ s⁻¹
